Results published in patent publication US20160251404A1 (Molecular Partners, published 2016).
Numbering of substitutions follows the chain as printed.

B1: DARPin #43 (designed binder)
chain: MRGSHHHHHHGSDLGKKLLEAARAGQDDEVRILMANGADVNAKYEDGLTPLHLAAFYGHLEIVEVLLKHGADVNATDAWGHTPLHLAAYYGHLEIVEVLLKYGADVNTHDKEGMTALHLAALTGHLEIVEVLLKNGADVNAQDKFGKTAFDISIDNGNEDLAEILQKLN
B2: DARPin #33 (designed binder)
chain: MRGSHHHHHHGSDLGKKLLEAARAGQDDEVRILMANGADVNAHDYSGFTPLHLAAYYGHLEIVEVLLKHGADVNAFDDWGHTPLHLAARYGHLEIVEVLLKYGADVNAEDTEGYTPLHLAAMDGHLEIVEVLLKNGADVNAQDKFGKTAFDISIDNGNEDLAEILQKLN
B3: DARPin #57 (designed binder)
chain: MRGSHHHHHHGSDLGKKLLEAARAGQDDEVRILMANGADVNAHDYLGLTPLHLAASDGHLEIVEVLLKHGADVNAYDYNGLTPLHLAANNGHLEIVEVLLKYGADVNAFDVAGYTPLHLAAYFGHLEIVEVLLKYGADVNAQDKFGKTAFDISIDNGNEDLAEILQKLN
B4: DARPin #59 (designed binder)
chain: MRGSHHHHHHGSDLGKKLLEAARAGQDDEVRILMANGADVNADDSLGLTPLHLAAASGHLEIVEVLLKNGADVNAVDQNSFTPLYLAANNGHLEIVEVLLKNGADVNAFDWHGTTPLHLAAMFGHLEIVEVLLKNGADVNAQDKFGKTAFDISIDNGNEDLAEILQKLN
B5: DARPin #42 (designed binder)
chain: B1 chain with Y89H, T108A, H109I, K111T, E112L, M114Y, A116P, L122N, T123F
B6: DARPin #41 (designed binder)
chain: MRGSHHHHHHGSDLGKKLLEAARAGQDDEVRILMANGADVNAKYEDGLTPLHLAAFYGHLEIVEVLLRHGADVNATDAWGHTPLHLAAYLGHLEIVEVLLKYGADVNAEDTEGYTPLHLAAMDGHLEIIEVLLKHGADVNAQDKFGKTAFDISIDNGNEDLAEILQKLN
B7: DARPin #37 (designed binder)
chain: MRGSHHHHHHGSDLGKKLLEAARAGQDDEVRILMANGADVNATDLTGFTPLHLAAYYGHLEIVEVLLKYGADVNADDRYGLTPLHLAANTGHLEIVEVLLKNGADVNASDSVGTTLLHLAAYIGHPEIVEVLLKYGADVNAQDKFGKTAFDISIDNGNEDLAEILQKLN
B8: DARPin #51 (designed binder)
chain: MRGSHHHHHHGSDLGKKLLEAARAGQDDEVRILLKAGADVNAKDRYGDTPLHLAADIGHLEIVEVLLKAGADVNAEDYFGNTPLHLAASYGHLEIVEVLLKAGADVNAKDDYGNTPLHLAANTGHLEIVEVLLKAGADVNAQDKSGKTPADLAADAGHEDIAEVLQKLN
B9: DARPin #60 (designed binder)
chain: MRGSHHHHHHGSDLGMKLLEAARAGQDDEVRILMANGADVNAHDTWGLTPLHLAAFHGHQEIVEVLLKHGADVNAQDFYGKTPLHLAALRGHLEIVEVLLKYGADVNAQDQFGKTAFDISIDNGNEDLAEILQKLN
B10: DARPin #38 (designed binder)
chain: MRGSHHHHHHGSDLGKKLLEAARAGQDDEVRILMANGADVNATDANGFTPLHLAAFYGHLEIVEVLLKYGADVNAYDNFGLTPLHLAASYGHLEIVEVLLKNGADVYAQDKFGKTAFDISIDNGNEDLAEILQKLN
B11: DARPin #48 (designed binder)
chain: MRGSHHHHHHGSDLGKKLLEAARAGQDDEVRILMANGADVNAKDRFGDTPLHLAADIGHLKIVEVLLKHGADVNAEDWFGNTPLHLAASMGHLEIVEVLLKYGADVNAMDDYGNTPLHLAANTGHLEIVEVLLKHGADVNAQDKFGKTAFDISIDNGNEDLAEILQKLN
B12: DARPin #61 (designed binder)
chain: MRGSHHHHHHGSDLGKKLLEAARAGQDDEVRILMANGADVNAEDYLGHTPLHLAASTGHLEIVEVLLKYGADVNAKDRNGLTPLYLAANNGHLEIVEDLLKYGADVNADDDNGTTPLHLAAIFGHLEIVEVLLKYGADVNAQDKFGKTAFDISIDNGNEDLAEILQKLN
B13: DARPin #56 (designed binder)
chain: MRGSHHHHHHGSDLGKKLLEAARAGQDDEVRILMANGADVNANDFLGLTPLHLAASTGHLEIVEVLLKYGADVNAIDAYGHTPLHLAANNGHLEIVEVLLKYGADVNAIDHFGYTPLHLAAMFGHLEIVEVLLKNGADVNAQDKFGKTAFDISIDNGNEDLAEILQKLN
B14: DARPin #58 (designed binder)
chain: MRGSHHHHHHGSDLGKKLLEAARAGQDDEVRILMANGADVNAHDYVGLTPLHLAASIGHLEIVEVLLKYGADVNASDYNGFTPLYLAANNGHLEIVEVLLKNGADVNATDSFGYTPLHLAAHYGHLEIVEVLLKNGADVNAQDKFGKTAFDISIDNGNEDLAEILQKLN

biological target: T1, recombinant human HGF (hepatocyte growth factor) (human, UniProt P14210 32-728); test: cell-based or functional assay
T1 sequence (P14210 32-728 limits assumed): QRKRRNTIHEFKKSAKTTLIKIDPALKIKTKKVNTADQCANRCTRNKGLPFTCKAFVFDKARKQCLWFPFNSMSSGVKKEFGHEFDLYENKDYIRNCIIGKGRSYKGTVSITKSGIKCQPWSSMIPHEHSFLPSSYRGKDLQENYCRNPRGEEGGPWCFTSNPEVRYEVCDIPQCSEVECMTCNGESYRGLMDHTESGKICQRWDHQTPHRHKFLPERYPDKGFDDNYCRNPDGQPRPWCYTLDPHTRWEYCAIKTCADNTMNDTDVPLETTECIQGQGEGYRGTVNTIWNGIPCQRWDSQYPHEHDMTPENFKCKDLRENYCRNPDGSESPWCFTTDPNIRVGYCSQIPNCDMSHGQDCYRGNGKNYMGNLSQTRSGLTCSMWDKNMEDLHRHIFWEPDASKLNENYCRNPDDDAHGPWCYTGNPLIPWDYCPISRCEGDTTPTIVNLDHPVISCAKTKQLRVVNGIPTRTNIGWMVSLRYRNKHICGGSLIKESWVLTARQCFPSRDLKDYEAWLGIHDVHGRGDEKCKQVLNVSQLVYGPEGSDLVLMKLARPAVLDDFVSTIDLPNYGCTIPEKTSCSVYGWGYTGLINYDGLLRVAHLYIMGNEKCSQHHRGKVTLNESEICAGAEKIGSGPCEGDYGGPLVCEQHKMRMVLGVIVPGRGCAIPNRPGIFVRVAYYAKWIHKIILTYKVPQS

Which “IC50 of U87 cell proliferation (BrdU)” value does the source give for B1 here?
The value was 72 nM.

biological target: T1, recombinant human HGF (hepatocyte …); test: cell-based or functional assay; remark: another data set of the same source

B2 was tested. Which “IC50 of U87 cell proliferation (BrdU)” value did it give?
The value was 137 nM.

With B3 as the binder, how does the “IC50 of U87 cell proliferation (BrdU)” value read?
The value was 730 nM.

With B4 as the binder, how does the “IC50 of U87 cell proliferation (BrdU)” value read?
The value was 3280 nM.

Which “IC50 of U87 cell proliferation (BrdU)” value does the source give for B5 here?
The value was 82 nM.

With B1 as the binder, how does the “IC50 of U87 cell proliferation (BrdU)” value read?
The value was 71 nM.

For B6, which “IC50 of U87 cell proliferation (BrdU)” value is on record?
The value was 113 nM.

How did the “IC50 of U87 cell proliferation (BrdU)” value turn out when B7 was run?
Its value is 400 nM.

How did the “IC50 of U87 cell proliferation (BrdU)” value turn out when B8 was run?
The value was 116 nM.

For B9, which “IC50 of U87 cell proliferation (BrdU)” value is on record?
The value was 78 nM.

biological target: T1, recombinant human HGF (hepatocyte …); test: SPR (ProteOn), human HGF immobilized on GLC chip, DARPin injected, PBS 0.005% Tween 20
Protocol: SPR was measured using a ProteOn instrument (BioRad) and measurement was performed according standard procedures known to the person skilled in the art. The running buffer was PBS, pH 7.4, containing 0.005% Tween 20®. Human HGF was covalently immobilized on a GLC chip (BioRad) to a level of about 5000 resonance units (RU). The interaction of DARPin and HGF was then measured by injecting 200 μl running buffer (PBS containing 0.005% Tween®) containing serial dilutions of DARPins of concentration of […] (on-rate measurement), followed by a running buffer flow for 25 minutes at a constant flow rate of 100 μl/min (off-rate measurement). The signals (i.e. resonance unit (RU) values) of the interspots and a reference injection (i.e. injection of running buffer only) were subtracted from the RU traces obtained after injection of DARPin (double-referencing). From the SPR traces obtained from the on-rate and off-rate measurements the on- and off-rate of the corresponding DARPin HGF interaction can be determined. […] Dissociation constants (Kd) were calculated from the estimated on- and off-rates using standard procedures known to the person skilled in the art. […] As an example, Table 1 summarizes the Kd values for some of the selected DARPins.

Which Kd does the source give for B10 here?
The Kd was 1.6 nM.

For B11, which Kd is on record?
The Kd was 0.016 nM.

With B12 as the binder, how does the Kd read?
The Kd was 0.16 nM.

How did the Kd turn out when B2 was run?
The Kd was 0.148 nM.

For B3, which Kd is on record?
Its Kd is 16.6 nM.

For B13, which Kd is on record?
The Kd was 0.736 nM.

Which Kd does the source give for B4 here?
The Kd was 0.528 nM.

With B5 as the binder, how does the Kd read?
The Kd was 0.084 nM.

How did the Kd turn out when B1 was run?
The Kd was 0.025 nM.

Which Kd does the source give for B7 here?
Its Kd is 0.011 nM.

B14 was tested. Which Kd did it give?
The Kd was 0.578 nM.

Which Kd does the source give for B8 here?
Its Kd is 0.051 nM.

For B9, which Kd is on record?
The Kd was 0.026 nM.

biological target: T1, recombinant human HGF (hepatocyte …); test: receptor competition ELISA: DARPin premixed with human HGF, binding of HGF to coated c-Met Fc chimera detected with anti-HGF antibody
Protocol: The potency of anti-HGF DARPins to inhibit the binding of human HGF to its receptor c-Met was determined in a receptor competition ELISA. c-Met (Fc chimera; RnD systems, USA, 358-MT-100/CF) was pre-coated on a microplate. DARPins and HGF were premixed in PBSTC and incubated at room temperature for 0.5 hours. These preincubation mixtures were then transferred into the with c-Met precoated wells and any HGF that was not blocked by the DARPins was bound by the immobilized receptor. After washing away any unbound substances, an polyclonal antibody specific for HGF (RnD systems, USA, AF-294-NA) was added to the wells. After washing away any unbound substances, an horse radish peroxidase conjugated antibody (Novus Biologicals, USA, NB7357) binding to the polyclonal antibody specific for HGF was added to the wells. Following a wash to remove any unbound antibody-enzyme reagent, a substrate solution (Roche, Switzerland, 11484281001) was added to the wells and color was developing in proportion to the amount of HGF bound. The color development was stopped and the intensity of the color was measured at 405 nm. […] Example titration curves are given for a set of DARPins in FIG. 5. IC₅₀ values were calculated from such titration curves obtained as described above using standard procedures known to the person skilled in the art.

B11 was tested. Which IC50 did it give?
Its IC50 is 0.91 nM.

Which IC50 does the source give for B3 here?
Its IC50 is 1.71 nM.

For B1, which IC50 is on record?
The IC50 was 1.36 nM.

Which IC50 does the source give for B7 here?
Its IC50 is 1.33 nM.

With B8 as the binder, how does the IC50 read?
The IC50 was 0.62 nM.

B9 was tested. Which IC50 did it give?
The IC50 was 0.95 nM.

biological target: T1, recombinant human HGF (hepatocyte …); test: cell-based or functional assay; remark: another data set of the same source

Which “% inhibition of HGF stimulated c-Met phosphorylation in A549 cells” value (shortened to “% inhibition”) does the source give for B10 here?
Its value is 88%.

What about the “IC50 of HGF stimulated c-Met phosphorylation in A549 cells” value (“IC50 … in A549 cells” below) of the same binder?
Its value is 2.59 nM.

Which results are given for B11?
% inhibition of HGF stimulated c-Met phosphorylation in A549 cells: 95%; IC50 of HGF stimulated c-Met phosphorylation in A549 cells: 0.1 nM

Which “% inhibition” value does the source give for B12 here?
The value was 82%.

And the “IC50 … in A549 cells” value?
The value was 0.39 nM.

Which results are given for B2?
% inhibition of HGF stimulated c-Met phosphorylation in A549 cells: 100%; IC50 of HGF stimulated c-Met phosphorylation in A549 cells: 0.2 nM

How did the “% inhibition” value turn out when B3 was run?
The value was 100%.

What about the “IC50 … in A549 cells” value of the same binder?
Its value is 1.72 nM.

Which results are given for B13?
% inhibition of HGF stimulated c-Met phosphorylation in A549 cells: 72%; IC50 of HGF stimulated c-Met phosphorylation in A549 cells: 0.53 nM

Which results are given for B4?
% inhibition of HGF stimulated c-Met phosphorylation in A549 cells: 100%; IC50 of HGF stimulated c-Met phosphorylation in A549 cells: 0.85 nM

How did the “% inhibition” value turn out when B5 was run?
The value was 98%.

And the “IC50 … in A549 cells” value?
Its value is 0.32 nM.

B1 was tested. Which “% inhibition” value did it give?
The value was 101%.

What about the “IC50 … in A549 cells” value of the same binder?
The value was 0.16 nM.

B6 was tested. Which “% inhibition” value did it give?
Its value is 99%.

What about the “IC50 … in A549 cells” value of the same binder?
The value was 0.13 nM.

How did the “% inhibition” value turn out when B7 was run?
Its value is 95%.

What about the “IC50 … in A549 cells” value of the same binder?
The value was 0.07 nM.

Which results are given for B14?
% inhibition of HGF stimulated c-Met phosphorylation in A549 cells: 89%; IC50 of HGF stimulated c-Met phosphorylation in A549 cells: 1.63 nM

How did the “% inhibition” value turn out when B8 was run?
The value was 81%.

What about the “IC50 … in A549 cells” value of the same binder?
The value was 0.01 nM.

How did the “% inhibition” value turn out when B9 was run?
The value was 94%.

What about the “IC50 … in A549 cells” value of the same binder?
Its value is 0.05 nM.
